Assay results published in publication PMC3347997, “Identification of basepairs within Tn5 termini that are critical sfor H-NS binding to the transpososome and regulation of Tn5 transposition”.

T1: H-NS (Escherichia coli, UniProt P0ACF8 1-137)
T1 sequence: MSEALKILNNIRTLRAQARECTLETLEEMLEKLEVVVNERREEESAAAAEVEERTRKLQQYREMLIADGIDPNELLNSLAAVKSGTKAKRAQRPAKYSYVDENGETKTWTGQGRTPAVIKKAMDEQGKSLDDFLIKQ

B1: OE 53-bp transposon end (dsDNA)
DNA 1: CCCTGCAGGTCGACTGACTCTTATACACAAGTTGAGTGAGTGAGCATGCA
DNA 2: ACATGCATGCTCACTCACTCAACTTGTGTATAAGAGTCAGTCGACCTGCAGGG

What was measured:
[1] = target: H-NS;Tn5 transposase (Escherichia coli;Tn5) (UniProt P0ACF8+Q46731); test: EMSA; conditions: 2 nM 32P-DNA, 200 nM transposase (400 nM for ME 8/9), H-NS normally 23-849 nM added simultaneously, no divalent metal, 30 min 37 C, 5% native PAGE; buffer …
[2] = target: T1, H-NS; test: EMSA; no appreciable H-NS binding to OE DNA not associated with transposase; no divalent metal; 2 nM 32P-DNA, 200 nM transposase (400 nM for ME 8/9), H-NS normally 23-849 nM added simultaneously, no divalent metal, 30 min 37 C, 5% native PAGE; buffer, salt and pH not given (cited); conditions: protein: recombinant; chain copies: 2; label: 5' 32P; as printed: 3 nt 5' overhang on strand 2; described as 53 bp duplex; two copies per transpososome

Sequence of H-NS;Tn5 transposase (Escherichia coli;Tn5) (Q46731 whole entry, chain 2 of 2, one chain of several): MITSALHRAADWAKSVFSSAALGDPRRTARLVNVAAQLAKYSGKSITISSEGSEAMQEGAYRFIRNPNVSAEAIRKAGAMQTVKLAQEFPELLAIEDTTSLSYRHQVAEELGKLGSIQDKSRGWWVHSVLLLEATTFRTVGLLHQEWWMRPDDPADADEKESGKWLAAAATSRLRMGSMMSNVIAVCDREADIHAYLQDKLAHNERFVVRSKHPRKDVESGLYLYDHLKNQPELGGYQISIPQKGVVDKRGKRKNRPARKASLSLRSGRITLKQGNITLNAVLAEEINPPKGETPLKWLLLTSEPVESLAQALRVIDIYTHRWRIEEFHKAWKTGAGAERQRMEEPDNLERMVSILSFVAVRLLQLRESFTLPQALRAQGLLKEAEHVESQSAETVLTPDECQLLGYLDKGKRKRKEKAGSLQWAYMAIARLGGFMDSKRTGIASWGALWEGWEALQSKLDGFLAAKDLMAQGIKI

Row | Molecule | Kd [1] | binding result [2]
1 | CCCTGCAGGTCGACTGTCTCTTATACACATCTTGAGTGAGTGAGCATGCA / ACATGCATGCTCACTCACTCAAGATGTGTATAAGAGACAGTCGACCTGCAGGG [WT ME 53-bp transposon end] | 51 nM | –
2 | CCCTGCAGGTCGACTGACTCTTATACACAAGTTGAGTGAGTGAGCATGCA / ACATGCATGCTCACTCACTCAACTTGTGTATAAGAGTCAGTCGACCTGCAGGG [OE 53-bp transposon end] | 232 nM | –
3 | B1 | – | no binding
